This note sets out measurements from the nanobody polyreactivity screen of Harvey et al. (2022).

The nature of this series: yeast display, Sf9 membrane polyspecificity reagent, FACS + sequencing; frameworks hold sequencing errors. In short, it runs like this:
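Synthetic nanobody libraries on Saccharomyces cerevisiae BJ5465 were galactose-induced for 36–48 hours, stained 1 hour at 4 °C with 10% biotinylated, detergent-solubilized Sf9 membrane reagent and enriched on streptavidin microbeads. FACS then separated cells into low and high (top ~1%) gates by anti-HA (expression) and streptavidin (reagent binding) fluorescence. Genes were colony-PCR amplified, MiSeq 2 × 250 sequenced and CDR-length filtered. A clone's polyreactivity label is that of its gate of origin.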
For “QVQLVESGGGLVQAGGSLRLSCAASGSTFASNTMGWYRQAPGKERELVAAITQSGGTTYYAESVKGRFTISRDNAKNTVTLQMNSLKPEDTAVYYCATDVGYFYTVVGGYDYWGQGTQVTVSS”, the “polyreactivity (PSR sort gate)” value is recorded as “low polyreactivity”. Consider “QVQLVESGGGLVQAGGSLRLSCAASGSTFATYAMGWYRQAPGKERELVAAIRVSGGTTYADSVKGRFTISRDNAKNTVYLQMNSLKPEDNAVYYCAATGWEVYDIFDYWVQGTQVTVSS”, for which the “polyreactivity (PSR sort gate)” value is “low polyreactivity”. “QVQLVESGGGLVQAGGSLRLSCAASGSTFATYTMGWYRQAPGKERELVAAISVSGSRTYYADSVKGRFTISRDNAKNTVYLQMNSLKPEDTAVYYCNADPPVKLYLYDYWGQGTQVTVSS”: the “polyreactivity (PSR sort gate)” value is given as “high polyreactivity”. The entry for “QVQLVESGGGLVQAGGSLRLSCAASGSTFATYVMGWYRQAPGKETELVAAISSSGSTNYADSVKGRFTISRDNAKNTVYLQMNSLKPEYTAVYYCAARYYRLTDRPYNPIVSYGYWGQGTQVTVSS” is “high polyreactivity”. The entry for “QVQLVESGGGLVQAGGSLRLSCAASGSTFAVYAMGWNRQAPGKERELVASITRGGSTYYADSVKGRFTISRDNAKYTVYLQMNSLKPEDTAVYYCADSITHYWYGYWGQGTQVTVSS” is “high polyreactivity”; for “QVQLVESGGGLVQAGGSLRLSCAASGSTFAWYAMGWYRQAPGKERELVAAISSGGRTYYADSVKGRFTISRDNAKNTVYLQMNSLKPEDTAVYYCNAVDWAYGMDYWGQGTQVTVSS” it is “low polyreactivity”.

For “QVQLVESGGGLVQAGGSLRLSCAASGSTFAWYTMGWYRQAPGKERELVASITSTGSTNYADSVKGRFTISRDNAKNTVYLQMNSLKPEDTAVYYCAAAVRAWYRRLYDYWGQGTQVTVSS”, the “polyreactivity (PSR sort gate)” value is “high polyreactivity”. Under “QVQLVESGGGLVQAGGSLRLSCAASGSTFAYNAMGWYRQAPGKERELVAAITRSGGSTYYADSVKGRFTISRDNAKNTVYLQKNSLKPEDTAVYYCNKASGGYYVTSLYAYRYYYWGQGTQVTVSS” stands “high polyreactivity”; under “QVQLVESGGGLVQAGGSLRLSCAASGSTFAYNDMGWYRQAPGKERELVADSRSGGNTNYADSVKGRFTISRDNAKNTVYLQMNSLKREDTAVYYCATDGYRIDVFHPDYRYDYWGHGTQVTVSS”, “low polyreactivity”.

For “QVQLVESGGGLVQAGGSLRLSCAASGSTFAYNTMGWYRQAPGKERELVAAISQRGGSTYADSVKGRFTISRDNAKNTVYLQMNSLKPEVTAVYYCNKRNVYYSYPFDYDYWGQGTQVTVSS”, the “polyreactivity (PSR sort gate)” value is recorded as “low polyreactivity”. Turning to “QVQLVESGGGLVQAGGSLRLSCAASGSTFAYYAMGWYRQAPGKEREFVAAISSRKDSTYADSVKGRFTLSRDNAKNTVYLQMNSLKPEDTAVYYCAKGPYYWSSSRVRYDYWGQGTQVTVSS”, the “polyreactivity (PSR sort gate)” value is on record as “high polyreactivity”. For the sequence “QVQLVESGGGLVQAGGSLRLSCAASGSTFAYYAMGWYRQAPGKERELVAAISASGSRTYYADSVKGRFTISRDNAKNTVYLQMNSLKPEDTAVYYCAALQYRRKIPTAYAGDYWGQGTQVTVSS”, the “polyreactivity (PSR sort gate)” value is on record as “high polyreactivity”. Consider “QVQLVESGGGLVQAGGSLRLSCAASGSTFAYYAMGWYRQAPGKERELVAAISYSGGITYYADSVKGRFTISRDNAKNTVYLQMNSLKPEDTAVYYCNKLFAQEFDYWGQGTQVTVSS”, for which the “polyreactivity (PSR sort gate)” value is reported as “high polyreactivity”. Consider “QVQLVESGGGLVQAGGSLRLSCAASGSTFAYYAMGWYRQAPGKERELVAGISGSGGSTYYADSVKGRFTISRDNAKNTVYLQMNSLKPEVTAVYYCAVVQRSKRTYPWYDYWGQGTQVTVSS”, for which the “polyreactivity (PSR sort gate)” value is given as “low polyreactivity”. The entry for “QVQLVESGGGLVQAGGSLRLSCAASGSTFAYYAMGWYRQAPGKERELVAVISVRVGSTYYADSVKGRFTISRDNAKNTVYLQMNSLNPEDTAVYYCATDFFYHSLSSRQDGDYWGQGTQVTVSS” is “high polyreactivity”.

Consider “QVQLVESGGGLVQAGGSLRLSCAASGSTFAYYAMGWYRQAPGKEREMVAAISSGGSTYYADSVKGRFTISRDNAKNTVYLQMNSLKPEDTAVYYCNAEVPGHYFDGWYFYDFDYWGQGTQVTVSS”, for which the “polyreactivity (PSR sort gate)” value is on record as “low polyreactivity”. For “QVQLVESGGGLVQAGGSLRLSCAASGSTFAYYAMVWYRQAPGKERELVAAISTIAGRTYYADSVKGRFTISRDNAKNTVYLQMNSLKPEDTAVYYCAVQFLYVVTLYSDYDYWGQGTQVTVSS”, the “polyreactivity (PSR sort gate)” value is listed as “high polyreactivity”. “QVQLVESGGGLVQAGGSLRLSCAASGSTFAYYMGWYRQAPGKERELVASISTYYADSVKGRFTISRDNAKNTVYLQMNSLKPEDTAVYYCNKAYYYVFTNYSTALAGDWGQGTQVTVSS”: the “polyreactivity (PSR sort gate)” value is given as “low polyreactivity”. Turning to “QVQLVESGGGLVQAGGSLRLSCAASGSTFAYYTMGWYRQAPGKERELVAAITSGGRTSYADSVKGRFTISRDNAKNTVYLQMNSLKPEDTAVYYCAKGRKPGYYYWGQGTQVTVSS”, the “polyreactivity (PSR sort gate)” value is listed as “high polyreactivity”. The entry for “QVQLVESGGGLVQAGGSLRLSCAASGSTFAYYTMGWYRQAPGKERELVAAITSGGRTTYADSVKGRFTISRDNAKNTVYLQMNSLKPEDTAVYYCAKGRKPGYYYWGQGTQVTVSS” is “high polyreactivity”; for “QVQLVESGGGLVQAGGSLRLSCAASGSTFCDNAMGWYRQAPGNERELVAAISMSGGRTYYADSVKGRFTISRDNAKNTVYLQMNSLKPEDTAVYYCAAVGNRRYYFGYDYWGQGSQVTVSS” it is “high polyreactivity”. Under “QVQLVESGGGLVQAGGSLRLSCAASGSTFCDNSMGWYRQAPGKERELVAAITTSGTSTYYADSVKGRFTISRDNAKNTVYLQMNSLKPEDTAVYYCAAPYGVARFGDYLDDYDYWGQGTQVTVSS” stands “low polyreactivity”.

With “QVQLVESGGGLVQAGGSLRLSCAASGSTFCDYTMGVYRQAPGKERELLAAISRRGGITYYADSVKGRFTISRDNAKNTVYLQMNSLKPEDTAVYYCNKVYNPKSYIQYDYWGQGTQVTVSS”, the “polyreactivity (PSR sort gate)” value was “high polyreactivity”.

With “QVQLVESGGGLVQAGGSLRLSCAASGSTFDAYAMGWYRQAPGKERELVAPISWSGGGTTYADSVKGRFTISRDNAKNTVYLLMNSLKPEDTAVYYCNAKGSVRDFQDTLRPEGDYWGQGTQVTVSS”, the “polyreactivity (PSR sort gate)” value is listed as “low polyreactivity”. For “QVQLVESGGGLVQAGGSLRLSCAASGSTFDDNAMGWYRQAPGKERELVAVISSGGSTNYADSVKGRFTISRDNAKNTVYLQMNSLKPEDTAVYYCAAAKLTRRYRYGYWGQGTQVTVSS”, the “polyreactivity (PSR sort gate)” value is recorded as “high polyreactivity”. With “QVQLVESGGGLVQAGGSLRLSCAASGSTFDDNDMGWYRQAPGKERELVAAISWSGGSTTYADSVKGRFTISRDYAKNTVYLQMNSLKPEDTAVYYCAADWYYWGFIFDYWGQGTQVTVSS”, the “polyreactivity (PSR sort gate)” value is reported as “high polyreactivity”. For “QVQLVESGGGLVQAGGSLRLSCAASGSTFDDYALGWYRQAPGKERELVAAISFSSGSTYYADSVKGRFTISRDNAKNTVYLQMNSLKPEDTAVYYCAAEKYGWTYYFSWQEDYWGQGTQVTVSS”, the “polyreactivity (PSR sort gate)” value is given as “high polyreactivity”. In the case of “QVQLVESGGGLVQAGGSLRLSCAASGSTFDDYAMGWYRPAPGKERELVAAISSDGSTNYADSVKGRFTISRDNAKNTVYLQMNSLKPEDTAVYYCAAESPWDWGYWFEALYDYWGQGTQVNVSS”, the “polyreactivity (PSR sort gate)” value is listed as “high polyreactivity”.

Regarding “QVQLVESGGGLVQAGGSLRLSCAASGSTFDDYAMGWYRQAPGKERELVAAISSSGGRTYYADSVKGRFTISRDNAKNTVYLQMNSLKPEDTAVYYCNADSYRSRGRYEFGRFDYWGQGTQVTVSS”, the “polyreactivity (PSR sort gate)” value is listed as “high polyreactivity”. For the sequence “QVQLVESGGGLVQAGGSLRLSCAASGSTFDDYAMVWYRQAPGKDREFVAAISFSGDSTYYADSVKGRFTISRDNAKNTVYLQMNRLKPEDTAVYYCAAEVPAEENGYAYDYWGQGTQVTVSS”, the “polyreactivity (PSR sort gate)” value is “low polyreactivity”. As to “QVQLVESGGGLVQAGGSLRLSCAASGSTFDENAMGWYRQAPGKERELVAGITTNGGSTSYADSVKGRFTISRDNAKNTVYLQMNSLKPEDTAVYYCAKGLYVQFDYWGQGSQVTVSS”, the “polyreactivity (PSR sort gate)” value was “low polyreactivity”.

For the sequence “QVQLVESGGGLVQAGGSLRLSCAASGSTFDFNAMGWYRQAPWKEMELVADITRDGSTNYADSVKGRFTISRDNAKNTVYLQMNSLNPEDTAVYYCNAANRPGISGITTQGYYWGQGTQVTVSA”, the “polyreactivity (PSR sort gate)” value is given as “low polyreactivity”. On to “QVQLVESGGGLVQAGGSLRLSCAASGSTFDFNVMGWYRQAPGKERELVAAISSGSSTYYADSVKGRFTISRDNAKNTVYLQMNSLKPEDTAVYYCARRYQLVRTRYYYWGQGTQVTVSS”, for which the “polyreactivity (PSR sort gate)” value is “high polyreactivity”. In the case of “QVQLVESGGGLVQAGGSLRLSCAASGSTFDGYAMGWYRQAPGKERELVAAISYSGSSTYYADSVKGRFTISGDNAKNTVYLQMNSLKPEDTAVVYCAVDDTHPFGPDGGGDYWGQGTQVTVSS”, the “polyreactivity (PSR sort gate)” value is listed as “low polyreactivity”. With “QVQLVESGGGLVQAGGSLRLSCAASGSTFDHNAMGWYRQAPGKEREFVAAISARGGITYYADSVKGRFTISRDNAKNTVYLQMNSLKPEDTAVYYCADVFGDYWSSQWSYAYGYWGLGTQVTVSS”, the “polyreactivity (PSR sort gate)” value is reported as “high polyreactivity”. Take “QVQLVESGGGLVQAGGSLRLSCAASGSTFDHNVMGWYRQAPGKERELVAAISGSGGSTYYADSVKGRFTISRDNAKNTVYLQMNSLKPEDTAVYYCAARYYVGHRGYYSWGQGTQVTVSS”: the “polyreactivity (PSR sort gate)” value was “high polyreactivity”. Regarding “QVQLVESGGGLVQAGGSLRLSCAASGSTFDHYDMGWSIPAPGKERELVAAISYSGSTTVYADSVKGRFTISRDNAMNTVYLQMNSLKPEDTAVYYCAASGDVIQSPMDYWGQGTQVTVSS”, the “polyreactivity (PSR sort gate)” value is reported as “low polyreactivity”. As to “QVQLVESGGGLVQAGGSLRLSCAASGSTFDINAMGWYRQAPGKERELVAAITWRSGRTYYADSVKGRFTISRDNAKNNVYLQMNSLKPEDTAVYYCAADDTSYYIYSYDYWGQGTQVTVSS”, the “polyreactivity (PSR sort gate)” value was “low polyreactivity”.

Turning to “QVQLVESGGGLVQAGGSLRLSCAASGSTFDINVMGWYRQAPGKERELVAAITWSGGRTYYADSVKGRFTISRDNAKNTVYLQMNSLKPEDTAVYYCAARVGRGVYRYVPREFDYWGQGTQVTVSS”, the “polyreactivity (PSR sort gate)” value is reported as “high polyreactivity”. In the case of “QVQLVESGGGLVQAGGSLRLSCAASGSTFDIYAMGWYRQAPGKERELVAVISGGDGSTYYADSVKGRFTISRDNAKNTVYLQMNSLKPEDTAVYYCAADYISPGYCDGEYDCWGQGTQVTVSS”, the “polyreactivity (PSR sort gate)” value was “low polyreactivity”.
